Measurements as given in article PMC5110118.

Target: C-terminal NanoLuc luciferase fragment, residues 66–171 (66C), bacterial construct
Test: split reporter

“N-terminal NanoLuc luciferase fragment, residues 1–65 (N65), bacterial construct (domain or fragment)” showed a fold increase in luminescence over 66C alone of 10 fold.
